Experimental findings from patent US20170015742A1 (published 2017) are described below.

For test [1], the target named is T1, Human VEGF-A 165 (human, UniProt P15692 207-395).
T1 construct: also called hVEGF165
Put plainly: SPR (Biacore), method of Example 1.1. How it is done:
(§1) Unreacted moieties on the biosensor surface were blocked with ethanolamine. For kinetic analysis, rate equations derived from the 1:1 Langmuir binding model were fitted simultaneously to multiple antigen injections (using global fit analysis) with the use of Scrubber 2 (BioLogic Software), Biacore Biaevaluation 4.0.1 software or Biacore T100 Evaluation software. Purified antibodies or DVD-Ig molecules were diluted in running buffer for capture across goat anti-human Fc reaction surfaces. Antibodies or DVD-Ig molecules to be captured as a ligand (1 μg/ml) were injected over reaction matrices at a flow rate of 10 μl/minute. During the assay, all measurements were referenced against the capture surface alone (i.e., with no captured antibody or DVD-Ig molecule). […] The equilibrium dissociation constant KD (M) of the reaction between antibodies and the target antigen was then calculated from the kinetic rate constants by the following formula: KD=Koff/Kₒₙ. Binding was recorded as a function of time and kinetic rate constants were calculated. In this assay, on-rates as fast as 10⁶M⁻¹s⁻¹ and off-rates as slow as 10⁻⁶ s⁻¹ could be measured.
Background: Surface plasmon resonance follows binding to a sensor surface in real time, without labels.

Test [2] has as its target T2, Human PDGF-BB (human, UniProt P01127 82-190).
T2 construct: also called hPDGF-BB
Put plainly: SPR (Biacore), method of Example 1.1. As to the method: as §1

T2 sequence (P01127 82-190 limits assumed): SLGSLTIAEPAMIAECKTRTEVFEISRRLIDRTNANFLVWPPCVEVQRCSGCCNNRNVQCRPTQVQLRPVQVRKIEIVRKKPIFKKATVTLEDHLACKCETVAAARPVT
T1 sequence (P15692 other isoform, or with tags, fused parts or gaps limits assumed): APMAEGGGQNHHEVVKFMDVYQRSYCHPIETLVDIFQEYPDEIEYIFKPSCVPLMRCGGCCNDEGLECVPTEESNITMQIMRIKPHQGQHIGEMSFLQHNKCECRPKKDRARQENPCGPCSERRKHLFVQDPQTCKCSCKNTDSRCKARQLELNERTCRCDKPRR

B1: CODV017 (bispecific antibody, human IgG1, kappa, L234A L235A)
heavy: DTVLTQSPATLSLSPGERATLSCRASESVSTHMHWYQQKPGQAPRLLIYGASNLESGVPARFSGSGSGTDFTLTISSLEPEDFAVYFCQQSWNDPFTFGQGTKLEIKGGGSGGGEFVLTQSPGTLSLSPGERATLSCERSSGDIGDSYVSWYQQKPGQAPRLVIYADDQRPSGIPDRFSGSGSGTDFTLTISRLEPEDFAVYYCQSYDINIDIVFGGGTKVEIKGGGSGASTKGPSVFPLAPSSKSTSGGTAALGCLVKDYFPEPVTVSWNSGALTSGVHTFPAVLQSSGLYSLSSVVTVPSSSLGTQTYICNVNHKPSNTKVDKKVEPKSCDKTHTCPPCPAPEAAGGPSVFLFPPKPKDTLMISRTPEVTCVVVDVSHEDPEVKFNWYVDGVEVHNAKTKPREEQYNSTYRVVSVLTVLHQDWLNGKEYKCKVSNKALPAPIEKTISKAKGQPREPQVYTLPPSREEMTKNQVSLTCLVKGFYPSDIAVEWESNGQPENNYKTTPPVLDSDGSFFLYSKLTVDKSRWQQGNVFSCSVMHEALHNAYTQKSLSLSPGK
light: EVTLRESGPALVKPTQTLTLTCTFSGFSLSTYGMGVGWIRQPPGKALEWLANIWWDDDKYYNPSLKNRLTISKDTSKNQVVLTMTNMDPVDTATYYCARIESIGTTYSFDYWGQGTMVTVSSGEVQLVQSGSELKKPGASVKVSCKASGYTFTNYGMYWVRQAPGQGLEWMGWINTETGKPTYADDFKGRFVFSLDTSVSTAYLQISSLKAEDTAVYYCARTNYYYRSYIFYFDYWGQGTMVTVSSGGRTVAAPSVFIFPPSDEQLKSGTASVVCLLNNFYPREAKVQWKVDNALQSGNSQESVTEQDSKDSTYSLSSTLTLSKADYEKHKVYACEVTHQGLSSPVTKSFNRGEC
notes: Anti-human VEGF-A/anti-human PDGF-BB cross-over DVD-Ig (CO-DVD-Ig); also called PR-1571830
In turn, B1 registered a dissociation constant Kd in test [1] of 57 nM. Moreover, in test [2], the Kd was determined as 0.0065 nM and the on-rate (kon) was found to be 3e+07 M⁻¹ s⁻¹.

B2: CODV015 (bispecific antibody, human IgG1, kappa, L234A L235A)
heavy: EVQLVQSGSELKKPGASVKVSCKASGYTFTNYGMYWVRQAPGQGLEWMGWINTETGKPTYADDFKGRFVFSLDTSVSTAYLQISSLKAEDTAVYYCARTNYYYRSYIFYFDYWGQGTMVTVSSGGGGSGGGEFVLTQSPGTLSLSPGERATLSCERSSGDIGDSYVSWYQQKPGQAPRLVIYADDQRPSGIPDRFSGSGSGTDFTLTISRLEPEDFAVYYCQSYDINIDIVFGGGTKVEIKGGGSGASTKGPSVFPLAPSSKSTSGGTAALGCLVKDYFPEPVTVSWNSGALTSGVHTFPAVLQSSGLYSLSSVVTVPSSSLGTQTYICNVNHKPSNTKVDKKVEPKSCDKTHTCPPCPAPEAAGGPSVFLFPPKPKDTLMISRTPEVTCVVVDVSHEDPEVKFNWYVDGVEVHNAKTKPREEQYNSTYRVVSVLTVLHQDWLNGKEYKCKVSNKALPAPIEKTISKAKGQPREPQVYTLPPSREEMTKNQVSLTCLVKGFYPSDIAVEWESNGQPENNYKTTPPVLDSDGSFFLYSKLTVDKSRWQQGNVFSCSVMHEALHNAYTQKSLSLSPGK
light: EVTLRESGPALVKPTQTLTLTCTFSGFSLSTYGMGVGWIRQPPGKALEWLANIWWDDDKYYNPSLKNRLTISKDTSKNQVVLTMTNMDPVDTATYYCARIESIGTTYSFDYWGQGTMVTVSSGGGGSGGGDTVLTQSPATLSLSPGERATLSCRASESVSTHMHWYQQKPGQAPRLLIYGASNLESGVPARFSGSGSGTDFTLTISSLEPEDFAVYFCQQSWNDPFTFGQGTKLEIKGGSRTVAAPSVFIFPPSDEQLKSGTASVVCLLNNFYPREAKVQWKVDNALQSGNSQESVTEQDSKDSTYSLSSTLTLSKADYEKHKVYACEVTHQGLSSPVTKSFNRGEC
notes: Anti-human VEGF-A/anti-human PDGF-BB cross-over DVD-Ig (CO-DVD-Ig); also called PR-1571827
Regarding B2, the Kd worked out at 0.024 nM in test [1] and 0.0013 nM in test [2]. Further, the kon in test [1] is 2.7e+06 M⁻¹ s⁻¹; in test [2], 7e+07 M⁻¹ s⁻¹.

B3: CODV016 (bispecific antibody, human IgG1, kappa, L234A L235A)
heavy: EVQLVQSGSELKKPGASVKVSCKASGYTFTNYGMYWVRQAPGQGLEWMGWINTETGKPTYADDFKGRFVFSLDTSVSTAYLQISSLKAEDTAVYYCARTNYYYRSYIFYFDYWGQGTMVTVSSGGGGSGGGEFVLTQSPGTLSLSPGERATLSCERSSGDIGDSYVSWYQQKPGQAPRLVIYADDQRPSGIPDRFSGSGSGTDFTLTISRLEPEDFAVYYCQSYDINIDIVFGGGTKVEIKGGGSGASTKGPSVFPLAPSSKSTSGGTAALGCLVKDYFPEPVTVSWNSGALTSGVHTFPAVLQSSGLYSLSSVVTVPSSSLGTQTYICNVNHKPSNTKVDKKVEPKSCDKTHTCPPCPAPEAAGGPSVFLFPPKPKDTLMISRTPEVTCVVVDVSHEDPEVKFNWYVDGVEVHNAKTKPREEQYNSTYRVVSVLTVLHQDWLNGKEYKCKVSNKALPAPIEKTISKAKGQPREPQVYTLPPSREEMTKNQVSLTCLVKGFYPSDIAVEWESNGQPENNYKTTPPVLDSDGSFFLYSKLTVDKSRWQQGNVFSCSVMHEALHNAYTQKSLSLSPGK
light: EVTLRESGPALVKPTQTLTLTCTFSGFSLSTYGMGVGWIRQPPGKALEWLANIWWDDDKYYNPSLKNRLTISKDTSKNQVVLTMTNMDPVDTATYYCARIESIGTTYSFDYWGQGTMVTVSSGGGGSDTVLTQSPATLSLSPGERATLSCRASESVSTHMHWYQQKPGQAPRLLIYGASNLESGVPARFSGSGSGTDFTLTISSLEPEDFAVYFCQQSWNDPFTFGQGTKLEIKGGSRTVAAPSVFIFPPSDEQLKSGTASVVCLLNNFYPREAKVQWKVDNALQSGNSQESVTEQDSKDSTYSLSSTLTLSKADYEKHKVYACEVTHQGLSSPVTKSFNRGEC
notes: Anti-human VEGF-A/anti-human PDGF-BB cross-over DVD-Ig (CO-DVD-Ig); also called PR-1571828
In test [1], B3 yielded a Kd of 0.02 nM and a kon of 2.9e+06 M⁻¹ s⁻¹. Also, in test [2], binding was put at a Kd of 0.0025 nM and the kon was found to be 4.6e+07 M⁻¹ s⁻¹.

B4: CODV021 (bispecific antibody, human IgG1, kappa, L234A L235A)
heavy: EVQLVQSGSELKKPGASVKVSCKASGYTFTNYGMYWVRQAPGQGLEWMGWINTETGKPTYADDFKGRFVFSLDTSVSTAYLQISSLKAEDTAVYYCARTNYYYRSYIFYFDYWGQGTMVTVSSGGGGSGGGEFVLTQSPGTLSLSPGERATLSCERSSGDIGESYVSWYQQKPGQAPRLVIYADDQRPSGIPDRFSGSGSGTDFTLTISRLEPEDFAVYYCQSYDINIDIVFGGGTKVEIKGGGSGASTKGPSVFPLAPSSKSTSGGTAALGCLVKDYFPEPVTVSWNSGALTSGVHTFPAVLQSSGLYSLSSVVTVPSSSLGTQTYICNVNHKPSNTKVDKKVEPKSCDKTHTCPPCPAPEAAGGPSVFLFPPKPKDTLMISRTPEVTCVVVDVSHEDPEVKFNWYVDGVEVHNAKTKPREEQYNSTYRVVSVLTVLHQDWLNGKEYKCKVSNKALPAPIEKTISKAKGQPREPQVYTLPPSREEMTKNQVSLTCLVKGFYPSDIAVEWESNGQPENNYKTTPPVLDSDGSFFLYSKLTVDKSRWQQGNVFSCSVMHEALHNAYTQKSLSLSPGK
light: EVTLRESGPALVKPTQTLTLTCTFSGFSLSTYGMGVGWIRQPPGKALEWLANIWWDDDKYYNPSLKNRLTISKDTSKNQVVLTMTNMDPVDTATYYCARIESIGTTYSFDYWGQGTMVTVSSGGGGSGGGDTVLTQSPATLSLSPGERATLSCRASESVSTHMHWYQQKPGQAPRLLIYGASNLESGVPARFSGSGSGTDFTLTISSLEPEDFAVYFCQQSWNDPFTFGQGTKLEIKGGSRTVAAPSVFIFPPSDEQLKSGTASVVCLLNNFYPREAKVQWKVDNALQSGNSQESVTEQDSKDSTYSLSSTLTLSKADYEKHKVYACEVTHQGLSSPVTKSFNRGEC
notes: Anti-human VEGF-A/anti-human PDGF-BB cross-over DVD-Ig (CO-DVD-Ig); also called PR-1577053
In test [1], B4 returned a Kd of 0.018 nM and a kon of 3.8e+06 M⁻¹ s⁻¹. In test [2], this molecule registered a Kd of 0.0019 nM and an association rate constant (kon) of 6.1e+07 M⁻¹ s⁻¹.

B5: CODV018 (bispecific antibody, human IgG1, kappa, L234A L235A)
heavy: EFVLTQSPGTLSLSPGERATLSCERSSGDIGDSYVSWYQQKPGQAPRLVIYADDQRPSGIPDRFSGSGSGTDFTLTISRLEPEDFAVYYCQSYDINIDIVFGGGTKVEIKGGGSGGGDTVLTQSPATLSLSPGERATLSCRASESVSTHMHWYQQKPGQAPRLLIYGASNLESGVPARFSGSGSGTDFTLTISSLEPEDFAVYFCQQSWNDPFTFGQGTKLEIKGGGSGASTKGPSVFPLAPSSKSTSGGTAALGCLVKDYFPEPVTVSWNSGALTSGVHTFPAVLQSSGLYSLSSVVTVPSSSLGTQTYICNVNHKPSNTKVDKKVEPKSCDKTHTCPPCPAPEAAGGPSVFLFPPKPKDTLMISRTPEVTCVVVDVSHEDPEVKFNWYVDGVEVHNAKTKPREEQYNSTYRVVSVLTVLHQDWLNGKEYKCKVSNKALPAPIEKTISKAKGQPREPQVYTLPPSREEMTKNQVSLTCLVKGFYPSDIAVEWESNGQPENNYKTTPPVLDSDGSFFLYSKLTVDKSRWQQGNVFSCSVMHEALHNAYTQKSLSLSPGK
light: EVQLVQSGSELKKPGASVKVSCKASGYTFTNYGMYWVRQAPGQGLEWMGWINTETGKPTYADDFKGRFVFSLDTSVSTAYLQISSLKAEDTAVYYCARTNYYYRSYIFYFDYWGQGTMVTVSSGEVTLRESGPALVKPTQTLTLTCTFSGFSLSTYGMGVGWIRQPPGKALEWLANIWWDDDKYYNPSLKNRLTISKDTSKNQVVLTMTNMDPVDTATYYCARIESIGTTYSFDYWGQGTMVTVSSGGRTVAAPSVFIFPPSDEQLKSGTASVVCLLNNFYPREAKVQWKVDNALQSGNSQESVTEQDSKDSTYSLSSTLTLSKADYEKHKVYACEVTHQGLSSPVTKSFNRGEC
notes: Anti-human VEGF-A/anti-human PDGF-BB cross-over DVD-Ig (CO-DVD-Ig); also called PR-1571831
For B5, binding in test [1] was put at a Kd of 31 nM. In test [2], this molecule came in with an equilibrium dissociation constant (Kd) of 0.0053 nM and an association rate constant (kon) of 3.5e+07 M⁻¹ s⁻¹.

By Kd is commonly meant the constant that tells how readily two partners part at equilibrium. Read a low Kd as higher affinity. In general, kon refers to the rate constant with which the complex forms. Lower therefore signals slower complex formation.
